One assay addresses T1, Human EphA3 Fc fusion (Human, UniProt P29320 21-541, limits assumed).
T1 construct: Bought Fc fusion; also called R&D Systems 6444-A3; not shown: Fc of the bought fusion
T1 sequence (looked up): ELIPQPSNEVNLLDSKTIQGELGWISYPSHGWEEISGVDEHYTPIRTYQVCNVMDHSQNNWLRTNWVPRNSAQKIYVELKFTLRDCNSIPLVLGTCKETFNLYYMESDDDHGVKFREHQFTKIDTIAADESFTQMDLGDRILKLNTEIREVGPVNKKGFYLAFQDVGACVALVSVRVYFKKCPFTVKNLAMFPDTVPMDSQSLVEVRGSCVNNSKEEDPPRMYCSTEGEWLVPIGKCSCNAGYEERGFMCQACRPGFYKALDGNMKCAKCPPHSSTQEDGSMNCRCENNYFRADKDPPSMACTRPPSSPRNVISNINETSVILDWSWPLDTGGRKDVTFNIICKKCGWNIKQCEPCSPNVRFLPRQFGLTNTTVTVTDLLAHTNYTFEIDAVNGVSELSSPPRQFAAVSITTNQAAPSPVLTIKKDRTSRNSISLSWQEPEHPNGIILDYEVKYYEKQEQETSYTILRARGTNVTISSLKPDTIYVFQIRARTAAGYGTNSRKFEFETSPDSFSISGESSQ
Put plainly: SPR, Fc-tagged protein captured by anti-human IgG. Background: SPR reads the build-up and loss of mass on a sensor chip optically.

In the next assay the target is T2, Human EphB4 Fc fusion (Human, UniProt P54760 16-539).
T2 construct: Bought Fc fusion; also called Sino Biologics 10235-H02H; not shown: Fc of the bought fusion
T2 sequence (looked up): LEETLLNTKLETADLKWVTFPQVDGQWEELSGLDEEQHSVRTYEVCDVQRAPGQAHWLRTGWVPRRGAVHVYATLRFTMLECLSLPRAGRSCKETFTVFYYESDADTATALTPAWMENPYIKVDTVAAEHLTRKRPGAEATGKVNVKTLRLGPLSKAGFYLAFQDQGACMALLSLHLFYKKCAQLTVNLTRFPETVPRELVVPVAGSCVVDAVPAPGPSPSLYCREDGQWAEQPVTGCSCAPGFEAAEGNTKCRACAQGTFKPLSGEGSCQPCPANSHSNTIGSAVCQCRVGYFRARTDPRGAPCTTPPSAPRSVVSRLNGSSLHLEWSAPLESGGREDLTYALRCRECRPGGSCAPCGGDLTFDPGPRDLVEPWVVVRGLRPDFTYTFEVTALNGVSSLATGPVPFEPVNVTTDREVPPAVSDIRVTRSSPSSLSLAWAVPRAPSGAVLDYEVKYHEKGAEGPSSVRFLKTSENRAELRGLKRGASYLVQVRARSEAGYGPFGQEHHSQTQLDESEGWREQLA
Put plainly: SPR, Fc-tagged protein captured by anti-human IgG.

For a further assay, the target named is T3, Human EphA7 Fc fusion (Human, UniProt Q15375 28-555, limits assumed).
T3 construct: Bought Fc fusion; also called R&D Systems 6756-A7; not shown: Fc of the bought fusion
T3 sequence (looked up): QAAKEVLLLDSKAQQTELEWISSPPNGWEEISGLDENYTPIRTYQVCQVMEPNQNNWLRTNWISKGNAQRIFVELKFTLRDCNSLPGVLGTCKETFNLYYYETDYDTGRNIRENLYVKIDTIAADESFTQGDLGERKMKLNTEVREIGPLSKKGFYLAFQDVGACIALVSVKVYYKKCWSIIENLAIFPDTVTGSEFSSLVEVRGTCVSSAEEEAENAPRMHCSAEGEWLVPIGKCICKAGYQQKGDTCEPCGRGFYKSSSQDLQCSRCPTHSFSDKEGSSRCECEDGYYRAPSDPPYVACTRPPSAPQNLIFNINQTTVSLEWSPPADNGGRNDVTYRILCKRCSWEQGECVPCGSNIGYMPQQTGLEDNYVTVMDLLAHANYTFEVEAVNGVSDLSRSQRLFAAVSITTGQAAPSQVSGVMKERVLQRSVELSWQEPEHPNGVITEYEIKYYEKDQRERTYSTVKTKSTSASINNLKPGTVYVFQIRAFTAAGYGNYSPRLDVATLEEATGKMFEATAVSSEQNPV
Put plainly: SPR, Fc-tagged protein captured by anti-human IgG.

A further assay has as its target T4, Human EphA1 Fc fusion (Human, UniProt P21709 26-547).
T4 construct: Bought Fc fusion; also called Sino Biologics 15789-H02H; not shown: Fc of the bought fusion
T4 sequence (looked up): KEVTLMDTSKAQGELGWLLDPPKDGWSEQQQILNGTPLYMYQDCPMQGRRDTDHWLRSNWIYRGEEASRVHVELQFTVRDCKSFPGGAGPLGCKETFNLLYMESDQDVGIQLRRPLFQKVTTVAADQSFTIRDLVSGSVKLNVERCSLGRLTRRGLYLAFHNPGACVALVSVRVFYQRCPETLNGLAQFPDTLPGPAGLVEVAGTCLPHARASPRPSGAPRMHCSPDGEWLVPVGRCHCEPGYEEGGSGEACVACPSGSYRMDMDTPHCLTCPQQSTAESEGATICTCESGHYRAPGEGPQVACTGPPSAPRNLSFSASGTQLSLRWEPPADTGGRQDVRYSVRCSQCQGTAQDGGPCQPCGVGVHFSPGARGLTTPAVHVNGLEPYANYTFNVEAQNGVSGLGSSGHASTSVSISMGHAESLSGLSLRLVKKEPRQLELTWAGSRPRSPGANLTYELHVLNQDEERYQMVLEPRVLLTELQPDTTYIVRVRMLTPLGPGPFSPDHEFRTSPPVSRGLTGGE
As to the kind of experiment: SPR, Fc-tagged protein captured by anti-human IgG.

Another assay addresses T5, Human EphA4 Fc fusion (Human, UniProt P54764 20-547).
T5 construct: Bought Fc fusion; also called Sino Biologics 11314-H03H; not shown: Fc of the bought fusion
Put plainly: SPR, Fc-tagged protein captured by anti-human IgG.

The target in the next assay is T6, Human EphA5 (Human, UniProt P54756 25-573, limits assumed, biotinylated, 3.1 mol biotin/monomer).
T6 construct: Bought protein; also called R&D Systems 3036-A5
Put plainly: SPR, biotinylated protein on streptavidin.

T6 sequence (P54756 25-573 limits assumed): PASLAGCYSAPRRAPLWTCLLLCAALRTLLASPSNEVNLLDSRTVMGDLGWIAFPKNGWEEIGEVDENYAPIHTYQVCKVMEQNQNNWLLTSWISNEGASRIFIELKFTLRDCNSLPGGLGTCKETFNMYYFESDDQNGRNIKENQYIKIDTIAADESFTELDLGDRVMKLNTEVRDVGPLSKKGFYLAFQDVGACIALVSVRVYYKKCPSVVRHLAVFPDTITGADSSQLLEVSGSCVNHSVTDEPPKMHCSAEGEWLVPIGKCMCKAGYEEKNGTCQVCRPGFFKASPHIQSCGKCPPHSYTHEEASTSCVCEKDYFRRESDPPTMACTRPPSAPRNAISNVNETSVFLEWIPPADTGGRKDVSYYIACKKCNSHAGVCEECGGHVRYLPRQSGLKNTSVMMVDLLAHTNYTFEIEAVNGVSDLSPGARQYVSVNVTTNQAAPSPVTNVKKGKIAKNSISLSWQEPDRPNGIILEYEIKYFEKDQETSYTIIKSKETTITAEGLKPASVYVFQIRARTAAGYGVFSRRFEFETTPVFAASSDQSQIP
T5 sequence (P54764 20-547 limits assumed): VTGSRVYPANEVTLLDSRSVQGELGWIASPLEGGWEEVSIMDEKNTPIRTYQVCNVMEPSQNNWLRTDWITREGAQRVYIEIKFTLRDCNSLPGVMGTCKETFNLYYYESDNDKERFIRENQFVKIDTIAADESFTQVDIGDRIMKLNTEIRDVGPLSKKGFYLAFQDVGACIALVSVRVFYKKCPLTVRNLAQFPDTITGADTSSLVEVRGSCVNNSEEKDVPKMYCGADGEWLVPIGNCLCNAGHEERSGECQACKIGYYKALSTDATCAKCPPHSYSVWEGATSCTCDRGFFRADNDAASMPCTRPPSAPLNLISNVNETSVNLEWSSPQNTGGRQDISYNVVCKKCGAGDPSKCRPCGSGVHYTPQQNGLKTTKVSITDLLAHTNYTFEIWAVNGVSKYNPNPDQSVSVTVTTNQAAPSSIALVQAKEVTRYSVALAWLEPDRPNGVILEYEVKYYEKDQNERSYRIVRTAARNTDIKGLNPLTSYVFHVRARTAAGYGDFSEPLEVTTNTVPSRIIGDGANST

B1: BCY6082 (peptide)
peptide: AXDCPLVNPLCLHPGWTC
modifications: not fully specified; N-terminal (β-Ala)-Sar10 spacer precedes SEQ ID NO: 11; HArg (homoarginine) at residue 2 of SEQ ID NO: 11; three Cys cyclised on the TATA scaffold; DM1-SS(SO3H)- (DM1-SO3H-SPDB) on the N-terminal amine
For B1, the binding result with Human EphA3 Fc fusion is “no binding (tested: 5 µM)”; in the assay with Human EphB4 Fc fusion it was “no binding (tested: 20 µM)”; in the assay with Human EphA7 Fc fusion, “no binding (tested: 20 µM)”; in the assay with Human EphA1 Fc fusion, “no binding (tested: 5 µM)”; with Human EphA4 Fc fusion it was “no binding (tested: 5 µM)”; with Human EphA5, “no binding (tested: 25 µM)”.

B2: BCY6033 (peptide)
peptide: AXDCPLVNPLCLHPGWTC
modifications: not fully specified; N-terminal (β-Ala)-Sar10 spacer precedes SEQ ID NO: 11; HArg (homoarginine) at residue 2 of SEQ ID NO: 11; three Cys cyclised on the TATA scaffold; ValCit-MMAE (MMAE-PABC-Cit-Val-glutarate) on the N-terminal amine
Consider B2, for which the binding result with Human EphA3 Fc fusion is on record as “no binding (tested: 5 µM)”; with Human EphB4 Fc fusion, “no binding (tested: 20 µM)”; with Human EphA7 Fc fusion, “no binding (tested: 20 µM)”; with Human EphA1 Fc fusion, “no binding (tested: 5 µM)”; with Human EphA4 Fc fusion, “no binding (tested: 5 µM)”; with Human EphA5, “no binding (tested: 25 µM)”.

The values above are taken from patent US20240000957A1 (published 2024).
